Laboratory results taken from patent US20180251524A1 (REGENTS OF THE UNIVERSITY OF MINNESOTA, published 2018).
Changes are numbered by the printed parent chain. Numbers in names are those of the source. Values belong to the binder of their own block, whether it stands above or below them.

Experiments:
[1] = biological target: T1, epithelial cell adhesion molecule (EpCAM) on EpCAM-expressing MCF-7 cells (human, UniProt P16422 24-314); assay: flow cytometry titration of unmodified parent ligand on MCF-7 cells
T1 construct: whole, on cells; also called cellular EpCAM; EpCAM+ MCF-7 cells
T1 sequence (looked up): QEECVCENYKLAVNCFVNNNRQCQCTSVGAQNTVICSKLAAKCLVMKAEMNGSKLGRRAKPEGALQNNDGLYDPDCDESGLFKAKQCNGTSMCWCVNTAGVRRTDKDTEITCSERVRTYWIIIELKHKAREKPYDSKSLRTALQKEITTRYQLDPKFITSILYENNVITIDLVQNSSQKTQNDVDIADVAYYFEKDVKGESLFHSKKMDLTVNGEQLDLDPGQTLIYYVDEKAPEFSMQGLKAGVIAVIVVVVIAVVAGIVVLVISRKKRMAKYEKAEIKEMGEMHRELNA

[2] = biological target: T1, epithelial cell adhesion molecule …; assay: flow cytometry titration of biotinylated ligand on EpCAM+ MCF-7 cells
[3] = biological target: T1, epithelial cell adhesion molecule …; assay: flow cytometry, multiple affinity titrations on EpCAM+ MCF-7 cells
[4] = biological target: T1, epithelial cell adhesion molecule …; assay: flow cytometry titration of soluble clone on MCF-7 cells
[5] = biological target: T1, epithelial cell adhesion molecule …; assay: flow cytometry titration on EpCAM+ MCF-7 cells
[6] = biological target: T1, epithelial cell adhesion molecule …; assay: flow cytometry on EpCAM+ MCF-7 cells
[7] = biological target: T1, epithelial cell adhesion molecule …; assay: flow cytometry titration on EpCAM-expressing MCF-7 cells, anti-MYC detection; apparent (multivalent) Kd
Procedure: The apparent affinity and selectivity of the Fn3 and mSA/Fn3 CSANs was determined by flow cytometry, as previously described (Stern, et al., ACS Combinatorial Science 2017, 19 (5), 315-323). Briefly, EpCAM-expressing MCF-7 cells and EpCAM-negative U-87 MG cells were cultured to approximately 80% confluency, detached, and counted, as described above. Aliquots of 5×10⁴ cells were washed with PBSA (PBS with 0.1% w/v bovine serum albumin) and labeled with varying concentrations of Fn3 or mSA/Fn3 CSANs for ≥90 min at 4° C. Cells were then pelleted (500 g, 5 min, 4° C.) and resuspended in 50 μL anti-MYC (clone 9E10) Alexa Fluor 647 conjugate (Thermo Fisher Scientific, Cat: MA1-980-A647; 5 μg/mL in PBSA). After incubating at 4° C. for ≥30 min in the dark, cells were again pelleted and washed thrice with 1 mL cold PBSA before the fluorescence was analyzed on an LSR II flow cytometer (BD Biosciences).

B1: EpCAM-binding fibronectin clone C8 (parent ligand) (designed binder)
chain: SSDSPRNLEVTNATPNSLTISWDYPNSASYYRITYSETGGNSPSQEFTVPGNTYNATISGLKPGQDYIITVYAVTYRDNYSYSNLISINYRTEIDKPSQHHHHHH
notes: also called C08
Kd [1]: 11 nM

B3: EpCAM-binding fibronectin clone C10 (parent ligand) (designed binder)
chain: B1 chain with Y24D, N26D, S27F, S36G, N41S, N55S, Q65R, Y67H, I68T, L85P
Kd [1]: 25 nM

B6: EpCAM-binding fibronectin clone B22 (parent ligand) (designed binder)
chain: B1 chain with Y24D, P25Y, N26T, S36G, I58V, K62R, L85P
Kd [1]: 1100 nM

B8: EpCAM-binding fibronectin (Fn3) clone C5 (designed binder)
chain: B1 chain with Y24N, P25S, S27Y, S36G, F47L, N52S, T92S
notes: Soluble domain made in E. coli; also called Fn 3.4.5; Fn C5
Kd [4]: 17 nM

B10: mixed, reduced valency CSANs of 1DD-FnC5-v4 and 1DD-FnNT-v4 subunits (designed binder)
chain 1: MGEQKLISEEDLGGSGGGSGGGISLIAALAVDRVIGMENAMPWNLPADLAWFKRNTLNKPVIMGRHTWESIGRPLPGRKNIILSSQPGTDDRVTWVKSVDEAIAAAGDVPEIMVIGGGRVYEQFLPKAQKLYLTHIDAEVEGDTHFPDYEPDDWESVFSEFHDADAQNSHSYSFEILERRGGISLIAALAVDRVIGMENAMPWNLPADLAWFKRNTLNKPVIMGRHTWESIGRPLPGRKNIILSSQPGTDDRVTWVKSVDEAIAAAGDVPEIMVIGGGRVYEQFLPKAQKLYLTHIDAEVEGDTHFPDYEPDDWESVFSEFHDADAQNSHSYSFEILERRGELGGSGGGGSGGGGSGGGGSGGGGSGGGGSGGGGSGGGGSGGGGSGGASSSDSPRNLEVTNATPNSLTISWDNSNYASYYRITYGETGGNSPSQELTVPGSTYNATISGLKPGQDYIITVYAVTYRDNYSYSNLISINYRSEIDKPSQGSHHHHHH
chain 2: MGEQKLISEEDLGGSGGGSGGGISLIAALAVDRVIGMENAMPWNLPADLAWFKRNTLNKPVIMGRHTWESIGRPLPGRKNIILSSQPGTDDRVTWVKSVDEAIAAAGDVPEIMVIGGGRVYEQFLPKAQKLYLTHIDAEVEGDTHFPDYEPDDWESVFSEFHDADAQNSHSYSFEILERRGGISLIAALAVDRVIGMENAMPWNLPADLAWFKRNTLNKPVIMGRHTWESIGRPLPGRKNIILSSQPGTDDRVTWVKSVDEAIAAAGDVPEIMVIGGGRVYEQFLPKAQKLYLTHIDAEVEGDTHFPDYEPDDWESVFSEFHDADAQNSHSYSFEILERRGELGGSGGGGSGGGGSGGGGSGGGGSGGGGSGGGGSGGGGSGGGGSGGASSSDSPRNLEVTNATPNSLTISWDAPAVTVRYYRITYGETGGNSPSQEFTVPGSKSTATISGLKPGQDYTITVYAVTGRDGSPASSKPISINYRTEIDKPSQGSHHHHHH
notes: Nanoring co-assembled with the chemical dimerizer bis-methotrexate
binding result [5]: binds

B13: Fn3 CSANs (DHFR^2-Fn3 fusion proteins with clone C5, oligomerized with bisMTX) (designed binder)
chain: MGEQKLISEEDLGGSGGGSGGGISLIAALAVDRVIGMENAMPWNLPADLAWFKRNTLNKPVIMGRHTWESIGRPLPGRKNIILSSQPGTDDRVTWVKSVDEAIAAAGDVPEIMVIGGGRVYEQFLPKAQKLYLTHIDAEVEGDTHFPDYEPDDWESVFSEFHDADAQNSHSYSFEILERRGGISLIAALAVDRVIGMENAMPWNLPADLAWFKRNTLNKPVIMGRHTWESIGRPLPGRKNIILSSQPGTDDRVTWVKSVDEAIAAAGDVPEIMVIGGGRVYEQFLPKAQKLYLTHIDAEVEGDTHFPDYEPDDWESVFSEFHDADAQNSHSYSFEILERRGELGGGGSGGGGSGGGGSASSSDSPRNLEVTNATPNSLTISWDNSNYASYYRITYGETGGNSPSQELTVPGSTYNATISGLKPGQDYIITVYAVTYRDNYSYSNLISINYRSEIDKPSQGSHHHHHH
notes: Multivalent nanoring; also called EpCAM-targeted Fn3 CSANs; monospecific Fn3 CSANs
Kd [7]: 21 nM

More lines, now with the values ahead:

Kd [2]: 5.7 nM
B2: non-specifically biotinylated fibronectin clone C8 (designed binder)
chain: B1 chain
modifications: non-specific biotinylation of primary amines (N-terminus, lysines) with EZ-Link Sulfo-NHS-Biotin
notes: also called biotin-C08; biotin-C8

Kd [3]: 14 nM
B4: NODAGA-Fn-C5 (Fn_C5_G65C conjugated to maleimide-NODAGA) (designed binder)
chain: B1 chain with Y24N, P25S, S27Y, S36G, F47L, N52S, G64C, T92S
modifications: maleimide-NODAGA on the engineered cysteine (G65C, position as in SEQ ID NO: 1)
notes: Single NODAGA per domain by MALDI-MS; also called Fn 3.4.5 G65C NODAGA conjugate

Kd [2]: 9.7 nM
B5: non-specifically biotinylated fibronectin clone C10 (designed binder)
chain: B1 chain with Y24D, N26D, S27F, S36G, N41S, N55S, Q65R, Y67H, I68T, L85P
modifications: non-specific biotinylation of primary amines (N-terminus, lysines) with EZ-Link Sulfo-NHS-Biotin
notes: also called biotin-C10

Kd [2]: 1700 nM
B7: non-specifically biotinylated fibronectin clone B22 (designed binder)
chain: B1 chain with Y24D, P25Y, N26T, S36G, I58V, K62R, L85P
modifications: non-specific biotinylation of primary amines (N-terminus, lysines) with EZ-Link Sulfo-NHS-Biotin
notes: also called biotin-B22

binding result [5]: no binding
B9: NODAGA-Fn-NT (Fn_NT_G65C non-targeted control conjugated to maleimide-NODAGA) (designed binder)
chain: SSDSPRNLEVTNATPNSLTISWDAPAVTVRYYRITYGETGGNSPSQEFTVPGSKSTATISGLKPCQDYTITVYAVTGRDGSPASSKPISINYRTEIDKPSQHHHHHH
modifications: maleimide-NODAGA on the engineered cysteine (G65C)
notes: Non-targeted scaffold with wild-type loops, G65C and RGD changed to RDG

binding result [6]: no binding
B11: CSANs displaying only the non-binding control domain (1DD-FnNT-v4) (designed binder)
chain: B10 chain 2
notes: Nanoring oligomerized with bis-methotrexate; control; also called 1DD-FnNT-v4 CSANs

binding result [5]: binds
B12: mixed, reduced valency CSANs of 1DD-FnB22-v4 and 1DD-FnNT-v4 subunits (designed binder)
chain 1: B10 chain 1 with N414D, S415Y, N416T, Y417S, L437F, S442N, I448V, K452R, L475P, S482T
chain 2: B10 chain 2
notes: as for B10

Kd [7]: 24 nM
B14: bispecific mSA/Fn3 CSANs (co-assembled mSA-DHFR^2 and DHFR^2-Fn3 subunits) (designed binder)
chain 1: B13 chain
chain 2: MAEAGITGTWYNQSGSTFTVTAGADGNLTGQYENRAQGTGCQNSPYTLTGRYNGTKLEWRVEWNNSTENCHSRTEWRGQYQGGAEARINTQWNLTYEGGSGPATEQGQDTFTKVKELGGSGGGSGGGSGGMISLIAALAVDRVIGMENAMPWNLPADLAWFKRNTLNKPVIMGRHTWESIGRPLPGRKNIILSSQPGTDDRVTWVKSVDEAIAAAGDVPEIMVIGGGRVYEQFLPKAQKLYLTHIDAEVEGDTHFPDYEPDDWESVFSEFHDADAQNSHSYSFEILERRGMISLIAALAVDRVIGMENAMPWNLPADLAWFKRNTLNKPVIMGRHTWESIGRPLPGRKNIILSSQPGTDDRVTWVKSVDEAIAAAGDVPEIMVIGGGRVYEQFLPKAQKLYLTHIDAEVEGDTHFPDYEPDDWESVFSEFHDADAQNSHSYSFEILERRGGSGGGSGGGSGGDYKDDDDK
notes: Stochastic mixture of the two subunits oligomerized with bisMTX; also called mSA/Fn3 bispecific CSANs
